We go through four molecules from patent publication US20240115720A1 (Memorial Sloan Kettering, published 2024).

The target in test [1] is T1, full-length cynomolgous DLL3 on HEK293 cells (cynomolgous, UniProt A0A2K5WSR1 27-585).
T1 construct: also called 293 cyno DLL3
T1 sequence: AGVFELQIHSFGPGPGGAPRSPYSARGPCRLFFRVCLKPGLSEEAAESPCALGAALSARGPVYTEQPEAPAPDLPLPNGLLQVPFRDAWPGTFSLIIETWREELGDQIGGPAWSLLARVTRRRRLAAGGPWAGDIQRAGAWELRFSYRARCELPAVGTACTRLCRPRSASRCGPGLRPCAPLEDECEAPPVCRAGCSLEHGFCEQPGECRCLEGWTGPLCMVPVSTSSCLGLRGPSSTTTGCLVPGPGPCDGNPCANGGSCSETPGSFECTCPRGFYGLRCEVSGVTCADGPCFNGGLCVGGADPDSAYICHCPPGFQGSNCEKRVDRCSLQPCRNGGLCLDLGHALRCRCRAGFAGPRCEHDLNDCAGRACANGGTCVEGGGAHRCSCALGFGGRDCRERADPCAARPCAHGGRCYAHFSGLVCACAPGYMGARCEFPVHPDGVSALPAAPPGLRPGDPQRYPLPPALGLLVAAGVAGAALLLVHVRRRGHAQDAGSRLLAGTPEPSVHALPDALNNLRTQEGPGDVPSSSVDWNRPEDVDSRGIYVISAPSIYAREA
Briefly: flow cytometry, HEK293 cells transfected with full-length cynomolgous DLL3, mAb 10 µg/ml. As to the method: (§1) For this purpose, HEK293 cells were transfected with plasmid DNA encoding full-length human, mouse or cynomolgous DLL3 and used in the experiment. Briefly […] transfected HEK293 cells or NCI-H82 primary cells were added in FACS buffer PBS 0.5% BSA to the wells of a 96 well U bottom plate and purified monoclonal added to 10 μg/ml. After 30 minutes incubation at 4° C. the cells were washed 3 times in FACS buffer and incubated with a PE labelled F(ab)2 anti-mouse IgG H and L 2nd stage. After another 30 minutes incubation at 4° C. the cells were washed three times in FACS buffer and analyzed on the flow cytometer. Data are presented at the ratio of the Mean Fluorescent Intensity for the monoclonal divided by the background staining with the 2nd stage.
(In general: Flow cytometry measures light scatter and fluorescence of single cells or particles in a stream.)

In test [2] the target is T2, full-length mouse DLL3 on HEK293 cells (mouse, UniProt O88516 33-584).
T2 construct: DLL3'; also called 293 mDLL3
T2 sequence: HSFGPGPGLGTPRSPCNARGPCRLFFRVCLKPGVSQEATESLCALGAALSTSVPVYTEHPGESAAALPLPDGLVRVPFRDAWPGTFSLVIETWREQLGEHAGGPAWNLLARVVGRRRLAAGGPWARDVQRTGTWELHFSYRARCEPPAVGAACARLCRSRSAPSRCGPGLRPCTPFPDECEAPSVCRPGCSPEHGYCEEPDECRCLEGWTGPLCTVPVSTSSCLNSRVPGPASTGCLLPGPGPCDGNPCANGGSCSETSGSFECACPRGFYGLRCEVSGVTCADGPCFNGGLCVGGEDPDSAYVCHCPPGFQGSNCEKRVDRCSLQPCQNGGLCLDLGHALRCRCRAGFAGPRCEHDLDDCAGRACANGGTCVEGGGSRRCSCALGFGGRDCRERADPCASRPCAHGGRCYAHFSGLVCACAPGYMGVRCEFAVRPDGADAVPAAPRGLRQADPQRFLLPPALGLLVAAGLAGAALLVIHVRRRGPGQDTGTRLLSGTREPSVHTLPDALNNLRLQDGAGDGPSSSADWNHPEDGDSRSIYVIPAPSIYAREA
Briefly: flow cytometry, HEK293 cells transfected with full-length mouse DLL3, mAb 10 µg/ml. As to the method:
as §1

Test [3] concerns the target T3, full-length human DLL3 on cells (human, UniProt Q9NYJ7 27-618).
T3 construct: also called hDLL3; 293 hDLL3
T3 sequence: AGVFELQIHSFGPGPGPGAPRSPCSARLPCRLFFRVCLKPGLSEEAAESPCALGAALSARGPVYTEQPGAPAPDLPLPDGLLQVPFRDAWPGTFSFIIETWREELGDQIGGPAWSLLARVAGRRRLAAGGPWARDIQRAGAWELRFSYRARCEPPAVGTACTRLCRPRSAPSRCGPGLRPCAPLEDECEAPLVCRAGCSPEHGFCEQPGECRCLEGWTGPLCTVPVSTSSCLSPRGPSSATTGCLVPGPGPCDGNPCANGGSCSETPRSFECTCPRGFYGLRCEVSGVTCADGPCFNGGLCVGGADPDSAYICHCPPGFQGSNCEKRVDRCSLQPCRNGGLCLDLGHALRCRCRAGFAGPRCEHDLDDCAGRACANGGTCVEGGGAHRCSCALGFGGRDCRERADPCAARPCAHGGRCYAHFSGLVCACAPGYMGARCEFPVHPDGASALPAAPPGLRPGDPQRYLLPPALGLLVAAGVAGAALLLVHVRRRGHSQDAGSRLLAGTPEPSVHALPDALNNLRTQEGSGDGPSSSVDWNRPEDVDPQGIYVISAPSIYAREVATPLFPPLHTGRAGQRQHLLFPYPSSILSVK
Put plainly: flow cytometry, NCI-H82 cells (endogenous human DLL3), mAb 10 µg/ml. As to the method: as §1

For test [4], the target named is T3, full-length human DLL3 on cells. Briefly: cell-based or functional assay.
Test [5] has the same target. Put plainly: cell-based or functional assay. This is another data set of the same source.
The target is the same in test [6]. Briefly: flow cytometry, HEK293 cells transfected with full-length human DLL3, mAb 10 µg/ml. How it is done: as §1
Test [7] has the same target. Briefly: cell-based or functional assay. This is another data set of the same source.

B1: 2-C8-A (antibody, V domains shown)
VH: EVQLVESGGGLVQPGGSQRLSCAASGFTFSSYWMNWVRQAPGKGLEWVANIKEDGSEKYYVDSVKGRFTISRDNAKNSLYLQMNSLRAEDTAVYYCARDPGWAPFDYWGQGTLVTVSS
VL: DIQMSQSPSSLSASVGDRVTITCRASQGISNYLAWFQQKPGKAPKSLIYAASSLQSGVPSKFSGSGSGTDFTLAISSLQPEDFATYYCQQYNSFPYTFGQGTTLEIK
notes: also called 2-C8-A monoclonal antibody
For the molecule B1, the “ratio of the Mean Fluorescent Intensity for the monoclonal divided by the background staining with the 2nd stage” value in test [1] was determined as 15; in test [2], 1.5; in test [3] it was 11.9; in test [6], 7.71. Moreover, in test [4], the “FAB ZAP % SC16 Max Killing (NCI-H82 cells)” value (“FAB ZAP % SC16 Max Killing” for short) worked out at 89 % SC16 Max Killing. For the same molecule, the “Dy light Dy650 fluorescence in the quenching internalization assay on NCI-H82 cells (% of the Control Reference Monoclonal Antibody)” value in test [5] was 62.9 % of the Control Reference Monoclonal Antibody. For the same molecule, the “MFI Ratio (4°C / 37°C staining of NCI-H82 cells; relative measure of internalization)” value in test [7] amounted to 1.76.

B2: 7-I1-B (antibody, V domains shown)
VH: EVQLVESGGGLVKPGGSLRLSCAASGFTFSNTWMSWVRQAPGKGLEWVGRIKSKSDGGTTDYAAPVKGRFTISRDDSKNTLYLQMNSLKTEDTAVYYCTQYYWNSFDYWGQGTLVTVSS
VL: not shown
notes: also called 7-I1-B mAb
For B2, the “ratio of the Mean Fluorescent Intensity for the monoclonal divided by the background staining with the 2nd stage” value in test [1] was found to be 18.7; in test [2], 4.7; in test [3], 19.2; in test [6], 9.74. In addition, in test [4], the “FAB ZAP % SC16 Max Killing” value amounted to 97 % SC16 Max Killing. Besides, the “Dy light Dy650 fluorescence in the quenching internalization assay on NCI-H82 cells (% of the Control Reference Monoclonal Antibody)” value in test [5] is 70.1 % of the Control Reference Monoclonal Antibody. For the same molecule, in test [7], the “MFI Ratio (4°C / 37°C staining of NCI-H82 cells; relative measure of internalization)” value amounted to 1.68.

B3: 6-G23-F (antibody, V domains shown)
VH: QVQLVQSGAEVKKPGASVKVSCKASGYTFTSYYIHWVRQAPGQGLEWMGIIDPSDGSTNYAQKFQGRVTMTRDTSTSTVYMELSSLRSEDTAVYYCARDREYNYYGLDVWGQGTTVTVSS
VL: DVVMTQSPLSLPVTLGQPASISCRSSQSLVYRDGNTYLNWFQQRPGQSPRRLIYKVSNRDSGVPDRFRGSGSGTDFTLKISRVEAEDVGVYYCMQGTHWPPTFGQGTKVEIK
notes: also called 6-G23-F monoclonal antibody
As to B3, the “ratio of the Mean Fluorescent Intensity for the monoclonal divided by the background staining with the 2nd stage” value in test [1] is 13.1; in test [2], 3.97; in test [3] it was 11.1; in test [6] it was 6.33. The “FAB ZAP % SC16 Max Killing” value in test [4] turned out to be 94 % SC16 Max Killing. Besides, in test [5], the “Dy light Dy650 fluorescence in the quenching internalization assay on NCI-H82 cells (% of the Control Reference Monoclonal Antibody)” value is 76.5 % of the Control Reference Monoclonal Antibody. Also, in test [7], the “MFI Ratio (4°C / 37°C staining of NCI-H82 cells; relative measure of internalization)” value came out at 1.67.

B4: 10-O18-A (antibody, V domains shown)
VH: QVQLQESGPGLVKPSETLSLTCTVSGGSINSYYWSWIRQPPGKGLEWIGYIFYSGITNYNPSLKSRVTISLDTSKNQFSLKLSSVTAADTAVYYCARIGVAGFYFDYWGQGTLVTVSS
VL: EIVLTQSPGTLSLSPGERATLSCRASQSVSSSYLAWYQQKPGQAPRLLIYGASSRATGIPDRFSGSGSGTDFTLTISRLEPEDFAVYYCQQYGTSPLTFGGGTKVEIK
notes: Hybridoma monoclonal from Ablexis AlivaMAb Kappa mice; it was captured on anti-mouse Fc sensors and detected with anti-mouse IgG / anti-mouse IgG1 reagents; also called 10-O18-A monoclonal antibody
As to B4, the “ratio of the Mean Fluorescent Intensity for the monoclonal divided by the background staining with the 2nd stage” value in test [1] was 9.85; in test [2] it was 0.99; in test [3] it was 9.4; in test [6], 4.74. In addition, the “MFI Ratio (4°C / 37°C staining of NCI-H82 cells; relative measure of internalization)” value in test [7] is 1.56.
